{
  "source": "patent US20120288481A1",
  "about": "(BRIGHAM AND WOMEN S HOSPITAL, published 2012)",
  "binders": {"B1": {"name": "human ephrin A1-Fcy chimeric protein (ephrin A1-Fc) (Fc fusion, UniProt P20827 19-182, looked up, not shown: a dimerising Fc or GST)", "chain": "DRHTVFWNSSNPKFRNEDYTIHVQLNDYVDIICPHYEDHSVADAAMEQYILYLVEHEEYQLCQPQSKDQVRWQCNRPSAKHGPEKLSEKFQRFTPFTLGKEFKEGHSYYYISKPIHQHEDRCLRLKVTVSGKITHSPQAHDNPQEKRLAADDPEVRVLHSIGHS"}},
  "molecular_target": "human EphA2 receptor on human cardiac stem cells (hCSCs) (human, UniProt P29317 24-976)",
  "sequence (P29317 24-976 limits assumed)": "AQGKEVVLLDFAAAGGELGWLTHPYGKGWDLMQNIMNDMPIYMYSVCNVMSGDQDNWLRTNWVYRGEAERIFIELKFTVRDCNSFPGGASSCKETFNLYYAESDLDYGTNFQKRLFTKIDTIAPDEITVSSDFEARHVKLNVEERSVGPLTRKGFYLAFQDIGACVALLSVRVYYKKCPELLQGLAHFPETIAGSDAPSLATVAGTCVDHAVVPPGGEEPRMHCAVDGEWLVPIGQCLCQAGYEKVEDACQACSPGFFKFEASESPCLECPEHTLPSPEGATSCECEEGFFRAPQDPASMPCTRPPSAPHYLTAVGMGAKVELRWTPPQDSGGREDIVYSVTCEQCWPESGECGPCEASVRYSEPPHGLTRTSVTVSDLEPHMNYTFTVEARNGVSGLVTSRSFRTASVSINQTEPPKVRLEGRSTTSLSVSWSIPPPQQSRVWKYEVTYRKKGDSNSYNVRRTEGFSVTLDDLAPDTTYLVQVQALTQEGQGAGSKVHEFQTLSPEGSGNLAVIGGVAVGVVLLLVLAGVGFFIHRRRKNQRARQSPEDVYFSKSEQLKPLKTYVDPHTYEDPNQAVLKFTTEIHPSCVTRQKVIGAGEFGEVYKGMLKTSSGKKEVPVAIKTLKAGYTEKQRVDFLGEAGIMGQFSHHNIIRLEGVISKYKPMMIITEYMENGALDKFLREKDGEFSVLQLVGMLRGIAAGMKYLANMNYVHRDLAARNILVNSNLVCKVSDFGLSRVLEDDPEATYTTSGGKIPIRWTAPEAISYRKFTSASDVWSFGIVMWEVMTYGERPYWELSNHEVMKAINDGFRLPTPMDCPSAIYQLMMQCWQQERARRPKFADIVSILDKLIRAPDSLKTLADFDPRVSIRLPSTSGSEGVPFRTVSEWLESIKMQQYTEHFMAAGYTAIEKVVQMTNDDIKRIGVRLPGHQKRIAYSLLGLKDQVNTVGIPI",
  "assay": "cell-based or functional assay",
  "data": [
    {"binder": "B1", "values": [
      {"measurement": "speed of locomotion of hCSCs within the myocardium (two-photon microscopy)", "value": 2, "unit": "fold"}
    ]}
  ]
}
